This data set is described as follows: label from the status in PepcDB records.
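Further: failed if final PepcDB status was selected cloned or expressed and not failed if soluble or beyond.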

As to “MVSDWLLLAPPAAFITAALALFVVDAISSDETSGWLLSGVTTAGGLAAAAIAGVLLLSETAAGGVELFGGQLVVDGMSLLFTFIFGSVTALVAVASLDYIRDLPHKAEYYLLISLAATGMSLMASANSLVVVFISLELASLPSYALVAYLKNNRGSVEAGLKYFLIGALSSGIMLYGISLIYATTGSFLLGDIAASVGEAASTHPGVFGVGLLMVIGGFAFKTASVPFHFWAPDAYEGAPAPVAAFLSSASKAAGFVIAFRVLLVGFPIQEVAATVDWVLLFQILAVVTMTVGNFAAATQSNVKRMLAYSSIGHAGYVLIGLAALTNVGGPTAEATVLGASMLHLLVYGFMNTGAFLFVAMVEHWDVGRTFEDYNGLAREAPLACVAMTIFLFSLAGLPVGGGFLSKYYLVVGAVGTGVWWLAVVLAINSALSLYYYSRVVKAMWIESPAESLTIERYPTALYAAVMAAAAVTVLLLPGLFVFDGAAFDAAAALL”, the protein production result is “failed”.

Turning to “MVSFVFNGGALWSVLLLALRKRRFNVDPAMMAMTIAIYAYCAANLVASIVNSAIARDALHLIPLVTFLFFPISYSTWSITQKTTLVRIIVLSSMAACFVALLLAVFQQHWLGMRAEGGAGNAIVFAEVLCLAVLVCVAGALSDIERHRIALLCAALGGTIAIIYSGTRIVWLALLIAGIAVLLINQHRLKGRNAIRLLVLLLAAGAVIAAVGFQTISGRVDFLRSDLDALAVNGDHTTAIGLRLAVWDIGLKAFREMPLFGHGVGATQALIKQGFHDQFGMDAGFNHFHNGFLTALVQAGLLGAVTLAAMFVVAARNAAVVLRNSTDPIERFGATMIVIMVITYLTSGMTGILIGHDILDSVLMVFLVSGTYLASGRQAPLPQDQALPPETEERAPAPVAEDALLPGMENRALRLTQ”, the protein production entry is recorded as “failed”.

In the case of “MVSIDTLIFQALNSSKFHPLYSPSINSINLQDDWAEKEGKEELSSILLLHRKASPPPPISALPNRNHKLQPLNLLFIDFPGQSFQQRERFRQFTASVRVYYVNDRKLNVQEGALIFFVRGVRYSLPLRELCDIYGFDNDLIGVALPGQFKDAQIFWSRFSNGIYDSKDAVHSEIRHLVLRYLVRLISSTLFCKMEPGKMRLSELLVLYHVVHDFFPDSLRFEEVDRDVNVGAVFAHHLVSLKTKPFTGRGKKLERVGSLLTPIFEHFRISFEGEELPCTALTKITSEHEELSFCPDPSLMHAAPRTRRHRGLASRSAPTQTEDEFIDPAEGLRVGSSSSALPYQLPSPPPIPMEPHVFQQYVVDSFKSVWNAIATLSR”, the protein production entry was “failed”.

In the case of “MVSIIIPIYNVQDYINDCLYSVYTQTYSEIEVILVNDCTPDNSMLIAHSNIEKLKKRFNVKIIDHKSNKGLSAARNSGVKEATGEWVYFLDSDDEITPDCIECFVRLAERYLSVDFIVGGIRVIGRNISYRLTTSEYVIGNDNILKCYISGMWYEMAWNKLIRKEYFVSNNLWFKEGLLHEDQLFSYQLATTALTMATVNKPTYIYKMRMSGAITSSNGRKNFDSFICILEYMVYSVMQKYSTSSVTLEYAQIIRFSYSILLSLYGKHNLTEMEVVNYELKVDRICRIVTFYKCKLPVPIQIKLTIIKLPQTMRKVLLKWHNKKIQKKLEHHHHHH”, the protein production entry is given as “not failed”.

As for “MVSPKKLTPAMEQVKTFKEKYPDCILFMRMGDFYETFFEDAEICARELDIVQTSRSKDPEGNPIPLAGIPYHAVDLYLPRMIRKGYKVAVCEQVEDPKLAKGVVKRDVVRVVTPGTAIDADVIPGPTARYLMALCSDAKKTVMGLAFLDISTGEFFVREIPFEPGFSALATEIEQYNPLEILVPQGISADLISFLASTCKVLTPGRSGLFVDGTAELTAAFCVSSLDGFDVSSAECINAAAAALRYAKETQKTSLPHIRGFSRKYANDAMILDAITLRNLEILNPLRGDRNDTTLFGFLNRTKTPMGSRVLRSTITRPLTSPEKINHRLDAVGFFTRRPVLLSGTRTILSRFTDIERIAGRIAYGNASPRDLLALASSLAAVPELTAELCGAEGLLKDELEQIPSFDGVADLILSAIVDEPPLVYKNGGVIREGYSSDLDQIRNIVTNGRDWIAELQQTERERTGIRSLKIAYNNVFGYYIEITKANLHLVPDTYERKQTTANGERFTIPALREREAVMAQADDRVLALEISLFESLLTHLSEFVPALQQASRSIGTIDMIAAFADLSLSGNYVRPELVPGTELLIRDGRHPIVENTVPGGYVPNDTEMSSIGQQILILTGANMAGKSTYMRSVALICIMAQTGCFVPASFARIGIVDRVFTRVGASDDLAGGQSTFMVEMLELANILNNATDQSLILLDEIGRGTSTVDGYAIARAVLEYLHGKGGAGPRTLFATHFHQLIGMESELRRVRNYHFAVKEDQHDITFLRKLIPGATDRSYGIHVAKIAGVPKKVLVRASDLLREALTQDASSGGTKYYTQMLLTDAEPAPSAVEERIRDADPNMMTPMQALMFINELKALLEKK”, the protein production result was “failed”.

Turning to “MVSRLVLGCGTVGHAVIGSLADRRGELFVFDGDESRVDSLRNESVAAEVRDVTDPAAITLPDRSVDMVVVAGERADRNRLAAIAADAAHPDAGLVVYLGFDATPKDRHRIDSVADRVVDPGAELLSHANSLTESGASQRLQALRQTLQGIDGRLGVFMHDNPDPDAIAAAVGLQRIAEDAGVDSQACYFGEISHQENRAFVNLLEFDLRNVETQSDAEFDAVALVDHSGPGVNDQLAPDTDVDIVIDHHPPTTDVDAGFTDIRPDTGATSTILVEYLRGYGIDVRTAVATALLYGIRVDTDDFAREITPRDFTAAAWLLPNADTDVLERIEAPSLSADTFDTIAAGIRNRQLNGSVLASCVGQITARDTLAQTADRLLAMRGVAVTFVYGYFDGTIYVSARSRRKDLDLGAVLRSAFDDLGSAGGHADMAGAQLPLGLFDAVGEDAATTLTEMIEEVVASRFFEEVHGGTSGIQQGE”, the protein production entry was “failed”.

Consider “MVSSLFINPFSEDAREIVRKYGSLDTIDDTRDELLEIGRRTRGQNLADNSLLPASIAELAVKRLEWYLRRQRKDFNHRDYAYLMNPEIEEYDVLAFYILAQAAGAGFMKASREARLVVESAGAMVEDRLNVFGGEREEIMAEVLYELGSEGLRWTELADLLGSGKLKLTDLILKEGRVIIDRDEFITSFQDSIRDRSPDRLYDILVGLEVRETMISRMIMQRTEEYIGMVREMSSTVEVHPLILETAERIRETVEEIMSFTGGPVKSARPGKLVQEAFPPCIRGTLDGVRSGNRNDAIVLLLTSFISYARLYPSVFRDRTPMKVSDLDPDLRITLGEILPVIYDAADRCEPPLFEDDPQEKLNITAKLGFGVHDMPELENEGESKWYTPMSCEKIKIHLPDLCRPDKLCSSISNPLTYYNRKRWKLRSSGEKEELEHHHHHH”, for which the protein production entry is “not failed”.

For the sequence “MVSVTFEPVGKKVEDEPDTILEIARRNGVLIRSDCGGKGVCGKCKVVVVDYRGSLSDITDHERKHLIEEEISKGYRLACQARVEEGRATIFIPPESRLERRKVAGLTIEKEVELNPAVRKVYAEIQPPSIEDQLPDYDRLTRALGDFSLDLETLSEMPKLLREAEWRVTATFWNGRLIDLEKGDVSDRCYGVAVDVGSSKIICHLVDLKSGETIATGYSDNPQVAYGEDIVSRITYASKSAENRKRLQTVVVETVNQIIAELCNESGVDLRHVYEVMIVGNSVMHHLFFGIEPRFIGVSPFTPAVRRGVSFPAEDVGLRINRKGYVSSLPLVAGFVGADAVANIAITGIHKAEEISMVIDIGTNTEIVIGNREKLGVCSAPSGPAFEGAHITFGMKAISGAIDSVRIERDEVIYTTIDNAKAKGLCGTGLIDLIAELYRNGIINRNGKFVKDHSRIIVDGVPKFVVAKAEETEFGKPITVSEKDINELLMAKGAIKSGWMILSERLGIEPDKIERIYLAGSFGRHINVENAKVIGLLPDIPSEKITFAGDTAVGGAKMALKSVRVRDEMEDVVSRLNYVELSVEKNFYSVFVRAIPI”, the protein production result was “not failed”.

As to “MVSYDRHINHVRLFVDGILDSSFLTEGITKTNDSPIYIGGAPYSVDSCDFPFLLDELKIYNLSIGTDQIQSEASASLSGIEPSFIYFGCFHCDMNTAILSCPNNYHLCNKMELYIGVYNVLRKFSLDVNNIILPYSSESNLGIGICCTDI”, the protein production entry is on record as “failed”.

For “MVTGMFSLGRTYLFRVPEGEELLTYIKNFCKKEGIETAIINGIGTLKNPKIGYFLEEKKEYKVIPLKGSYELISLIGNVSLKDGEPFVHAHVSLGNEEGIVFGGHLVEGEVFVAEIFLQELKGEKIERKPTKYGLALWEELKLLEHHHHHH”, the protein production entry is “not failed”.

Consider “MVTLLVLRMISAITRKTPVKTLSKRSKTFNETAGGEGGGGAIKLITINVHIRYSFTMITISQYFHLVDELRNCTRKVWSTYPKELIELLRDSMVTH”, for which the protein production entry is “failed”.

For the origin of these results see a protein production outcome set (Wang et al. 2014).
